This is an account of results in publication PMC9976904, “eIF4A1-dependent mRNAs employ purine-rich 5’UTR sequences to activate localised eIF4A1-unwinding through eIF4A1-multimerisation to facilitate translation”.

The data set deals with eIF4A1 DQAD (human, UniProt P60842 1-406, E183Q). The data set can be described thus: EMSA; silvestrol; affinity similar to wt; 20 mM HEPES/KOH pH 7.5, 100 mM KCl, 1 mM TCEP, 1% DMSO, 2 mM AMPPNP/MgCl2, 25 C, 60 min; EMSA gels 6-7% acrylamide-TB, 0.5x TB. As to conditions: protein: recombinant; tags: N-terminal 6xHis-SUMO, cleaved; label: FAM or 5' Dy780.
Sequence of eIF4A1 DQAD (P60842 whole entry E183Q): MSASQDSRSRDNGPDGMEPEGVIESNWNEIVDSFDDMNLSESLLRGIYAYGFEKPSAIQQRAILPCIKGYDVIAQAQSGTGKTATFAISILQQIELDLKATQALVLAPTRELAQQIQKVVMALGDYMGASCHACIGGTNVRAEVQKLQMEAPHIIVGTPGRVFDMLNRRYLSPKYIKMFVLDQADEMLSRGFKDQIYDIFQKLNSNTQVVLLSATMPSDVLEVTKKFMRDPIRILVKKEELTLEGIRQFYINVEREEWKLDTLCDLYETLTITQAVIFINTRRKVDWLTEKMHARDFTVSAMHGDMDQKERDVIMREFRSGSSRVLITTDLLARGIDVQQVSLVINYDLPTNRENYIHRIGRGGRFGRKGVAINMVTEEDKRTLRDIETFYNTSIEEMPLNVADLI

Consider AGAGAGAGAGAGAGAGAGAG (ssRNA) [AG-RNA (20 nt)], for which the binding result is on record as “binds”.
